According to the supplement of paper PMC9170038:

Columns and labels:
MS2 coat protein [1] = assay: apparent KD of MS2 coat protein, switch ON state; designed switch direction (-1 OFF switch, 1 ON switch): -1; higher = weaker reporter binding; settings: FMN input: 0 or 200 uM; Eterna round: R93 (includes R88 designs)
Outline: (§1)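 Designed RNA switches were transcribed on-chip from Illumina sequencing clusters and titrated with SNAP-549-labelled MS2 coat protein in twofold steps from 0.7 or 1.5 nM up to 3 µM. Each step lasted 0.8–1.5 h at first and 10–20 min by the end, in 100 mM Tris-HCl pH 7.5, 80 mM KCl and 4 mM MgCl2, without or with constant ligand. Apparent KD is the median, for each design, of fits to normalised cluster binding curves.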

MS2 coat protein [2] = assay: apparent KD of MS2 coat protein, switch OFF state (with FMN for OFF switches, without FMN for ON switches); designed switch direction (-1 OFF switch, 1 ON switch): -1; higher = weaker reporter binding; settings: FMN input: 0 or 200 uM; Eterna round: R93 (includes R88 designs)
Outline: as §1

Row | Sequence | apparent KD of MS2 coat protein (MS2 coat protein [1]) | apparent KD of MS2 coat protein (MS2 coat protein [2])
1 | UCCUGACAUGAGGAUCACCCAUGUCAGGAUAUCUACAGAACCUCAUGUAAAAAACUGUAGAGAAGGGAUAUGGG [Design 98: Pseudoknot H] | 16.9 nM | 17.5 nM
2 | AGGAAACAUGAGGAUCACCCAUGUGAGGAUAUCAGAAAGAAAAGAAAAGAAAGAAGAAUGAGAAGGCACAAGAA [Hotepsekhemwy] | 26 nM | 40.8 nM
3 | AAGAACCUAGGAUAUACAUGAGGAUCACCCAUGUAAAAGAAAGAAAGGGAAAAGAAAAGUAGAAGGAGGAAGAA [Heqakheperre Shoshenq II] | 12.1 nM | 15.7 nM
4 | AAAAAACAUGAGGAUCACCCAUGUGAGGAUAUCGAAAAAAAAAUAAAAAUAAAACAUACGAGAAGGCACACCAA [Amethyst 59] | 30.5 nM | 35.7 nM
5 | AAAGGAGUAGGAUAUACAUGAGGAUCACCCAUGUAAAAAACAUAAUAAAAGAACUUAUGUAGAAGGGCUCCAAA [69%, Moding Meechl, 11] | 35.8 nM | 77.9 nM
6 | AAAACGUGAGGAUAUGCACCAAAAAAGGUUUUUCGGGUACGACAUGAGGAUCACCCAUGUAGAAGGCACGAAAA [Frodo Flailing 14 - Jieux - Exclusion 2] | 20.3 nM | 14.1 nM
7 | AAAAAACAUGAGGAUCACCCAUGUGAGGAUAUGAACGAAAAUAAAUAAAAAUAAAAGUUCAGAAGGCACAAAAA [66%, Wbt, 10] | 42.2 nM | 47.9 nM
8 | AAUAUGUUAGGAUAUGCGAAGUCAGGACACACACUGACGAAGCAGAAGGAACAUGAGGAUCACCCAUGUAAUAA [JR_Exclusion-4 65% 6] | 27.6 nM | 26.6 nM
9 | CUCAAGUAAGGAUAUCGAAGAAAAGAAGAGAAAGAAAAGAACGAGAAGGUACAUGAGGAUCACCCAUGUAAGAA [EteRNA is fun!] | 32.4 nM | 28 nM
10 | AAAAAAAAAGGAUAUACAGGAGGUAAGGUCGGACAAAAAAGACAUGAGGAUCACCCAUGUAGAAGGUUUAAAAA [Excls2-X] | 39.4 nM | 35.1 nM
11 | AAAACGGUAGGAUAUACAAUUGGGAACUAGACCGAAAAACCACAUGAGGAUCACCCAUGUAGAAGGGCCAAAAA [Ex2 Malc#12] | 39.2 nM | 77.6 nM
12 | AACAGUACAGGAUAUACAUGAGGAUCACCCAUGUGAAAAUUAAGUGGAGAACCACAAUGUAGAAGGGUACUGGA [Mat - Exclusion 3 - Eli mod - D48] | 133 nM | 57.3 nM
13 | AAGAUGUGAGGAUAUGCUUGUCGUCACAAAAGUGAUGACGAGCAGAAGGCACAUGAGGAUCACCCAUGUAAAGA [Opal 26] | 90.1 nM | 147 nM
14 | AAAAAACAUGAGGAUCACCCAUGUAAGGAUAUGCUAAAAAACACGGAAAACGUGAAUAGCAGAAGGUACAAAAG [Mat - Exclusion 1 - Eli mod - D84] | 15.9 nM | 67.7 nM
15 | AGAAAACAUGAGGAUCACCCAUGUGAGGAUAUGCGAAAGAAAGAAAGAAAGAAAGAAAGCAGAAGGCACAAGAA [Ex 1 Tesla 2] | 15.6 nM | 44.4 nM
16 | AAUAAGAGAGGAUAUACAUAAUAAAAGAAAAGAAACAAAGAACAUGAGGAUCACCCAUGUAGAAGGCUCAAUAA [Sonbef] | 21.9 nM | 18.9 nM
17 | UCACACCUAGGAUAUACAUGAGGAUCACCCAUGUGGCACUCCGCAGGCAGUGUUCCCAGUAGAAGGAGGACACG [Ricere] | 27.8 nM | 22.4 nM
18 | AAAAAGUGAGGAUAUUCGGAAGGGAAAGCGCAAACCCAACCGAAGAAGGCACAUGAGGAUCACCCAUGUAAAAA [Ecls4-III 65% - Early G segment 1] | 30.6 nM | 35.2 nM
19 | AAGACUAGAGGAUAUACAUGAGGAUCACCCAUGUAACUGUCAGGAAACUGACGGAGAUGUAGAAGGCUAGUCAA [Mat - Exclusion 3 - Neo mod - D75] | 16.7 nM | 38.4 nM
20 | AAAACGGCAGGAUAUACAGAUGAGAACUCGACCGAAAAAAAACAUGAGGAUCACCCAUGUAGAAGGGCCAAAAA [Ex2 Malc#6] | 30.1 nM | 61.9 nM
21 | ACCUUACAUGAGGAUCACCCAUGUUAGGAUAUCUCGCUCUCGCAGUCACAGCGCAAGCAGAGAAGGGACACGGG [Maretien] | 32.6 nM | 36.6 nM
22 | AAAAAACAUGAGGAUCACCCAUGUGAGGAUAUGUACGAAAUAAAUAAAAAAUAAAAGUACAGAAGGCACAAAAA [Mat - Exclusion 1 - Eli mod - D5] | 35.5 nM | 32.4 nM

Row | Sequence | apparent KD of MS2 coat protein (MS2 coat protein [1]) | apparent KD of MS2 coat protein (MS2 coat protein [2])
23 | AAAAAACAUGAGGAUCACCCAUGUAAGGAUAUGCUCGUAAGUGCGAAAGCACAAAUGAGCAGAAGGUACAAAAA [66%, Wbt, 44] | 19.2 nM | 31 nM
24 | AAGAAGUCAGGAUAUGCCAGAGAUCAAGAAAGUGACGAGUAGCAGAAGGGACAUGAGGAUCACCCAUGUAAAGA [Opal 8] | 45.9 nM | 36.9 nM
25 | AUCGAUCGAGGAUAUACAUGAGGAUCACCCAUGUAAAAAAAAAAAAAGGCCUCAGGAUGUAGAAGGCGACGCAA [JR_Exc003_Sub403] | 18.5 nM | 18.7 nM
26 | AUUCUACAUGAGGAUCACCCAUGUGAGGAUAUGCUAUACUAUUGUUGCAAUACUUAGAGCAGAAGGCACAUCGU [JR_EXc001_Sub801] | 30.2 nM | 66.2 nM
27 | AAAAAGUUAGGAUAUACAUGAGGAUCACCCAUGUGCACGUAUGGAGAAUAUGGUGGUAGUAGAAGGGACAAAAA [EX2 Malc#18] | 55.3 nM | 66.6 nM
28 | AAUGGUGCAGGAUAUACAUGAGGAUCACCCAUGUACAUCAGACAUAUGGUCGAAACAUGUAGAAGGGCACCAAA [Ex 3May 55] | 107 nM | 336 nM
29 | AACAGUACAGGAUAUACAUGAGGAUCACCCAUGUGAAAAGAAAGUGGCGUACCACAAAGUAGAAGGGUACUGGA [Mat - Exclusion 3 - JL mod - D24] | 27.5 nM | 96.8 nM
30 | AGCUAGACAGGAUAUACGUAAAUGUCGAAAGACGUAUAGGGACAUGAGGAUCACCCAUGUAGAAGGGUCUAGCA [Diamond 100] | 22.7 nM | 39.6 nM
31 | AACUGGGCAGGAUAUACAUGAGGAUCACCCAUGUAAAGAAAAGAAAGAUCCGAAGAAAGUAGAAGGGCCUGGAA [Variant 3 of Mod 1 of Ex3 sub 3, by Tesla's Dusciple Round 1] | 98 nM | 126 nM
32 | CAGUACUGAGGAUAUACAUGAGGAUCACCCAUGUGAUCAAGCUACGAAAGUAGCACAUGUAGAAGGCAGUACUG [Ex3: 808] | 24 nM | 19.1 nM
33 | AAGGGACAUGAGGAUCACCCAUGUGAGGAUAUGACGUAAAGAAAGAAAGAAGAAAUCGUCAGAAGGCACACCAA [Mat - Exclusion 1 - Eli mod - D70] | 70.6 nM | 118 nM
34 | AAAUGUUGAGGAUAUACAUGAGGAUCACCCAUGUGUAAAAAUAAAUACACAAAAGAAAGUAGAAGGCAACAAAA [Ex 3 May 11] | 28.7 nM | 79.7 nM
35 | AAGAAGACAGGAUAUACAUGAGGAUCACCCAUGUAAAAGAAAGAAGGGAAAGAGAAAAGUAGAAGGGUCAAGAA [Menkheperre Ini] | 23.6 nM | 25.3 nM
36 | GGAAAACAUGAGGAUCACCCAUGUAAGGAUAUGCUAAAAAAAAAAAAAAAAAAAAAAUGCAGAAGGUACUAAAG [Amethyst 18] | 34 nM | 118 nM
37 | AAAGGACGAGGAUAUACAUGAGGAUCACCCAUGUAAAAAACAUAGUCAAAGGGCUUGUGUAGAAGGCGUCCAAA [Meechl Ex3 2 R2 v11] | 50.2 nM | 229 nM
38 | AAAAGGUGAGGAUAUAGGAAAAUAAAAGAAAAUAAAAGAAACUAGAAGGCACAUGAGGAUCACCCAUGUAAUAA [LROPPY Exclusion 4 - v03_deltaG=3.54 break up the As mixed] | 28.7 nM | 23.6 nM
39 | GUCGUGUGAGGAUAUGGAAAGUAGAAGUGGCGGUCGAAAACCUAGAAGGCACAUGAGGAUCACCCAUGUAAGAG [JR_Exc004_Sub1708] | 57 nM | 54.3 nM
40 | AUAAGUCGAGGAUAUACAAAAUGCUAGCGAAAGCUAGCAUAACAUGAGGAUCACCCAUGUAGAAGGCGACAAUA [Tetraloop hairpin BlockHead Variation2] | 21.7 nM | 21.3 nM
41 | AAAAAGCGAGGAUAUACAUGAGGAUCACCCAUGUAAAAAAAAAAAAAGGGAAAAAAAAGUAGAAGGCGCAAAAA [Sekhemraneferkhau Wepwawetemsaf] | 43.2 nM | 48.7 nM
42 | AAAAAGUAAGGAUAUCUGGAUAGGAAAAAGAAAACCUAUCCAGAGAAGGUACAUGAGGAUCACCCAUGUAAAAA [Opal 30] | 20.8 nM | 14.1 nM
43 | AGUUGGCGAGGAUAUACAUGAGGAUCACCCAUGUGAGAAAAAAAAGUGAGAAAGAAAAGUAGAAGGCGCUGACA [Mat - Exclusion 3 - Lego mod - D88] | 54.6 nM | 314 nM
44 | AAAAAGGCAGGAUAUACGAAACAGGGAAACCUGAAAGGGAAACAUGAGGAUCACCCAUGUAGAAGGGCCAAGAA [Clint Eastwood 64% 2] | 48.3 nM | 82 nM
